The supplement of paper PMC6757056
± gives the standard deviation of the averaged measurements.

B1: library; a variant is named by its letters at N, in order (parent)
chain: GCUGUCACCGAGAAACUGUGAAGUAUAUCUUAAACCUGGGCACUUAAAAGAUAUAUGGAGUUAGUAGUGCAACCUGCUCGGUCUGAUGAGUCCNNNNNNGGACGAAACAGC

Experiments:
[1] = variants of: B1; assay: normalized RNA/DNA level without ligand (relative to sTRSVctl = 100) (log10 (% of sTRSVctl)); HEK293T; ligand: cyclic di-GMP (c-di-GMP-II aptamer); higher = less ribozyme self-cleavage, higher mRNA level; details: reporter: mCherry (pCS4076), ligand present: no
Summary of the method: (§1)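 Library plasmids encoding reporter-linked ribozyme switches (mCherry, or eGFP for some folinic acid experiments) were transfected into HEK293T at 4 µg per 6-well well. Ligand, when used, was added 1 h before transfection. Total RNA was extracted with EDTA 72 h later, then reverse-transcribed, amplified, barcoded and sequenced. RNA level was RNA reads over DNA reads, divided by a spiked-in non-cleaving control (or the top 25 sequences), ×100, log10; only sequences with ≥100 DNA reads were kept.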

[2] = variants of: B1; assay: normalized RNA/DNA level with ligand (relative to sTRSVctl = 100) (log10 (% of sTRSVctl)); HEK293T; ligand: cyclic di-GMP (c-di-GMP-II aptamer); ligand concentration (+) RNA-Seq: 1 mM; higher = less ribozyme self-cleavage, higher mRNA level; details: reporter: mCherry (pCS4076), ligand present: yes
Summary of the method: as §1

| Variant | normalized RNA/DNA level without ligand (log10) [1] | normalized RNA/DNA level with ligand (log10) [2] |
| --- | --- | --- |
| AUAAAC | 1.647 ± 0.0018 | 1.8 ± 0.13 |
| GAUAUU | 1.61 ± 0.019 | 1.8 ± 0.13 |
| CCUGUU | 1.67 ± 0.019 | 1.86 ± 0.084 |
| UCCCAU | 1.71 ± 0.02 | 1.85 ± 0.16 |
| UCGCGC | 1.73 ± 0.029 | 1.89 ± 0.093 |
| AAUUAU | 1.67 ± 0.03 | 1.82 ± 0.1 |
| CCGGAG | 1.31 ± 0.13 | 1.52 ± 0.14 |
| GCAUUU | 1.55 ± 0.037 | 1.74 ± 0.095 |
| GACUGA | 1.57 ± 0.041 | 1.72 ± 0.12 |
| AUCUUC | 1.81 ± 0.038 | 1.92 ± 0.086 |
| AUCUUU | 1.69 ± 0.046 | 1.86 ± 0.1 |
| AUUUGA | 1.51 ± 0.052 | 1.75 ± 0.16 |
| UCCCGC | 1.801 ± 0.018 | 1.91 ± 0.1 |
| CACACG | 1.75 ± 0.036 | 1.83 ± 0.095 |
| UAUCGA | 1.609 ± 0.0048 | 1.79 ± 0.12 |
| GCUUUG | 1.66 ± 0.03 | 1.83 ± 0.13 |
| AUGAUC | 1.65 ± 0.049 | 1.82 ± 0.087 |
| AUUAUA | 1.58 ± 0.03 | 1.74 ± 0.095 |
| CGUAAC | 1.557 ± 0.0076 | 1.72 ± 0.091 |
| CACCAG | 1.74 ± 0.03 | 1.88 ± 0.11 |

| Variant | normalized RNA/DNA level without ligand (log10) [1] | normalized RNA/DNA level with ligand (log10) [2] |
| --- | --- | --- |
| GGCUGA | 1.54 ± 0.052 | 1.71 ± 0.14 |
| CUGCCU | 1.64 ± 0.028 | 1.81 ± 0.15 |
| CUGCCG | 1.78 ± 0.011 | 1.92 ± 0.064 |
| CUUCGC | 1.79 ± 0.024 | 1.83 ± 0.056 |
| CUGGAU | 1.53 ± 0.094 | 1.73 ± 0.053 |
| AUAGGA | 1.35 ± 0.13 | 1.55 ± 0.15 |
| CUCAAC | 1.66 ± 0.033 | 1.8 ± 0.1 |
| GAUGGU | 1.64 ± 0.057 | 1.8 ± 0.063 |
| GAUGGG | 1.54 ± 0.081 | 1.67 ± 0.16 |
| CCAGGU | 1.69 ± 0.061 | 1.82 ± 0.081 |
| CUACAG | 1.73 ± 0.023 | 1.87 ± 0.035 |
| AGGCGA | 1.56 ± 0.037 | 1.67 ± 0.13 |
| CGUCGG | 1.7 ± 0.039 | 1.81 ± 0.13 |
| AUAUUA | 1.56 ± 0.05 | 1.76 ± 0.057 |
| AUAUUU | 1.67 ± 0.018 | 1.84 ± 0.11 |
| UGUGCA | 1.77 ± 0.02 | 1.87 ± 0.073 |
| UUGUGA | 1.599 ± 0.011 | 1.79 ± 0.11 |
| UGAUGC | 1.754 ± 0.01 | 1.84 ± 0.09 |
| AGAUCU | 1.72 ± 0.045 | 1.85 ± 0.084 |
| AGAUCG | 1.72 ± 0.051 | 1.88 ± 0.061 |

| Variant | normalized RNA/DNA level without ligand (log10) [1] | normalized RNA/DNA level with ligand (log10) [2] |
| --- | --- | --- |
| UGAUCU | 1.72 ± 0.023 | 1.86 ± 0.11 |
| GGGGAA | 1.48 ± 0.1 | 1.54 ± 0.055 |
| CCUCGC | 1.745 ± 0.0039 | 1.82 ± 0.14 |
| GUCGGG | 1.73 ± 0.025 | 1.84 ± 0.13 |
| CAUCAC | 1.67 ± 0.027 | 1.8 ± 0.069 |
| GGAAGC | 1.634 ± 0.0082 | 1.76 ± 0.054 |
| UAUCCA | 1.77 ± 0.062 | 1.86 ± 0.097 |
| GUCCAC | 1.6752 ± 0.00073 | 1.82 ± 0.054 |
| GAUCCU | 1.7 ± 0.025 | 1.84 ± 0.13 |
| GAGUAU | 1.79 ± 0.024 | 1.86 ± 0.099 |
| AUGACG | 1.59 ± 0.089 | 1.76 ± 0.086 |
| UGCAGU | 1.66 ± 0.038 | 1.83 ± 0.11 |
| CGGGGG | 1.62 ± 0.059 | 1.77 ± 0.026 |
| GAGGAC | 1.67 ± 0.053 | 1.79 ± 0.11 |
| AGUCCC | 1.77 ± 0.042 | 1.87 ± 0.069 |
| UCAGAC | 1.63 ± 0.017 | 1.76 ± 0.13 |
| UCUGGA | 1.58 ± 0.054 | 1.79 ± 0.1 |
| UUGCCA | 1.8 ± 0.08 | 1.82 ± 0.13 |
